Laboratory results: publication PMC8962522, “Direct interaction of TrkA/CD44v3 is essential for NGF-promoted aggressiveness of breast cancer cells” (Journal of Experimental & Clinical Cancer Research : CR, 2022)

Biological target: T1, TrkA-His tagged extracellular domain protein (Ala 34-Gly423) (UniProt P04629 34-423, RED-Tris-NTA dye on the His tag (Monolith His-Tag Labeling Kit))
T1 construct: TrkA (tropomyosin kinase A) extracellular domain, Ala34-Gly423; The TrkA used for nanoDSF is not described; source: bought: R&D Systems (9966-TK-050)
T1 sequence (P04629 34-423): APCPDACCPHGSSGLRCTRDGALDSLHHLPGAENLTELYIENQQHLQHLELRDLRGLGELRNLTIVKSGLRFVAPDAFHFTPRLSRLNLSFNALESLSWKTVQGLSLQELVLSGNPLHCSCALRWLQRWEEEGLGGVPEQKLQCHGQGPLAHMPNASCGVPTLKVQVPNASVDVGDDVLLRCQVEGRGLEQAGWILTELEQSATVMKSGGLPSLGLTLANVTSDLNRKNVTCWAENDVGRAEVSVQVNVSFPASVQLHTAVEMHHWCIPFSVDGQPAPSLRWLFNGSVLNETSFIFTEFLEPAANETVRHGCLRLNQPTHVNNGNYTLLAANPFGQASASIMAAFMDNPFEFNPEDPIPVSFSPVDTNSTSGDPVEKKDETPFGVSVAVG
Experiment: MST; binding check: peptides and TrkA-His labelled with RED-Tris-NTA; PBS-T; high MST power, 100% LED
Conditions: both partners purified

B1: CD44v3 mimetic peptide 4 (peptide)
peptide: IDDDEDFISST
notes: zone 4, the C-terminal region of CD44 variant exon v3; numbers count on: exon v3 (D34, F38 as printed); also called P4; CD44v3 C-terminal-mimicking peptide; source: synthetic peptide
  binding result: binds

B2: CD44v3 mimetic peptide 3 (peptide)
peptide: RDRHLSFSGSG
notes: zone 3 of CD44 variant exon v3; not glycosylated; numbers count on: exon v3; also called P3; source: synthetic peptide
  binding result: binds
